From a protein production outcome set (Wang et al. 2014)

Test: label from the status in PepcDB records
For “MKNNDLTTYGEYLEKLSPKHGREKVFNDFLQIVVCCLSMGRKEELYFKTIKPYDKTELDLFSQAFAALVMQMDRQPLVDPFGDYFQEFLSNAQNGQFFTPFGVCELMNQLITAPKVSDQPKQGDRRVLDPACGSGRLLLSAAQKDRALTFVGIDISYTCCLMTIINLCLNSLNGEVLHMNALTDQYWHRWLIIVDSVTKIPTVYEVEAGIINQPPACADDLKPLPVTGIIQPVKNMIPANFVRYTPKCLEHHHHHH”, the protein production was “failed”.
For “MKNNPLISIYMPTWNRQQLAIRAIKSVLRQDYSNWEMIIVDDCSTSWEQLQQYVTALNDPRITYIHNDINSGACAVRNQAIMLAQGEYITGIDDDDEWTPNRLSVFLAHKQQLVTHAFLYANDYVCQGEVYSQPASLPLYPKSPYSRRLFYKRNIIGNQVFTWAWRFKECLFDTELKAAQDYDIFLRMVVEYGEPWKVEEATQILHINHGEMQITSSPKKFSGYFHFYRKHKDKFDRASKKYQLFTLYQIRNKRMTWRTLLTLLSVRNGKRLADGIRGRLEHHHHHH”, the protein production was “not failed”.
For “MKNQLELIAESYDKGIDYGRRGISLYDDLPEYITNNPDYIIYKKTTESIEPSVYSGYKEIREYLSPTTNMKFIDLGCCLNLMFNGYDQWASTYHGVDISSKTIELLNEFSTNNKLHIGALICGSIHETPFDANYFDIGACIGVLEYYKKDFVEKALIEAHRIIKPGGKLVLDIPNIVSPACRGMILLEEHAGRTDQFDMLPLDFENMLCNYFEIEKVEKANAWAMFQYFLSCKK”, the protein production was “failed”.
With “MKNQLIDRLTRYTTIDTQSDPKSTTTPSTEKQWDLLHLLEKELQQLGLPTDLDENGYLFATLESNIDVDVPTVGFLAHVDTSPDFNASNVKPQIIENYDGKPYKLGNTKRVLDPKVFPELNSLVGHTLMVTDGTSLLGADDKAGIVEIMEAICYLQEHPEIKHGTIRIGFTPDEEIGRGPHKFDVDRFNADFAYTMDGSQYGELQYESFNAAEAVITCHGVNVHPGSAKNAMVNAIRLGEQFDSLLPDSEVPERTEGYEGFYHLMNFEGTVEKATLQYIIRDHDKKQFELRKKRILEIRDDINAHFENYPVKVDISDQYFNMAEKILPLPHIIDIPKRVFAKLDIPANTEPIRGGTDGSQLSFMGLPTPNIFTGCGNFHGPYEYASIDVMEKAVQVIIGIVEDIAENH” the protein production was “failed”.
With “MKNRFAMMLMALLPVLVACQAKDGSADTVQSAVPAPSAPPSSSTATTTPTTPPPESARPVEASRVPSGPKPVAGTDYVVIQDGQQFQPVSGKVEVVEVFGYICPACFQFQPQIALWKAGLASDVNFVYVPAVFGGPWDDYARAFYAAETLNLQEKTHQQLYKAIHVDRTLKGERGRDTVQDIANFYAKFGVNPEQFVNTMSSFGISAKVNRAKQFAKHSQVTGTPSLIINGKYLVKGRTYDDMLRIADHLIEGERKVLGK” the protein production was “failed”.
In the case of “MKNRRTRWYRSLALRLLFIFWALLSVTAASGYLLAVWNKPKAELKPLEPEIYQTLQPLLSDALTFHSLQPGRLIAGDYRVAAQLSVQGSEKLLMDEMLRVSHGSTLLRMLGQESPQQIPLDERLLMGPFELDGNKILVTKPLGIEEQVDRERLEAESTRARILTLMVGSGLLAVLLGIWLIRPIRRMILAMREVADGSATPELKRLPKRGDEIGELARALSQGAVDLATSRDAQRRLLSDVSHELRSPMARMQVALDLADCNEDDPNWQQLRRDTERLSVIIERILSLSRLENGLVDLNHESLDSGELVQQLINDMCYQHPEVRERLLRHGSNWPVIDTDPELLRLVLENIVRNALHYTEDNVELSCDDYGKGCHIRIRDHGPGVDESTISKLFVPFYRGDPARHHKAGVGLGLALSHRAAAVLGGELKAHNHSEGGLEVVLDLPKSQPEQKE”, the protein production is reported as “failed”.
For “MKNRSLTLRLISVLCLTALFVWLGSTLVAWWQVRHDVNKVFDAQQVLFAERLANSDLSTILLESSTTLNKNSQSVLKKSYDDDALAFAIFSKTGKLLFSDGRNGKDFIFNYKTGFYNANIYDDDDKWRIFWRMAANGELVIAVGQELDYREDLIEEMILGQMWIWFASLPILIIVLGWLIHKELRPIKRLSQEVQTRKSGDVSLLNTEGLPVEILPLVKNLNQFFDRTSAMLQRERRFTSDAAHELRSPLAALRIQIEVAQLAGDDVALREQALLHLTQGIDRASQLIEQLLTLSRLDNLQALETLQLLDWEAIVQSLISERYFVAEKRKITLVFEKESEPKQKQGQSILVSLMLRNLLDNAIKYCPEDTIVSVKISSSQIIIEDNGGGVEPEDLKKLGQRFYRPAGQNEKGSGLGLSIVMRIAELHGFKVRLENVVKEGRRIGLKAIISL”, the protein production was “failed”.
